These results are taken from publication PMC3751566.

Assay [1] concerns the target syntaxin4 (UniProt P70452). Put plainly: syntaxin4 IP, Munc18c blot (reciprocal). To be noted: reference: wild type Munc18c (WT and R cells), insulin.
Assay [2] has as its target syntaxin4 (UniProt P70452). Put plainly: Munc18c IP, syntaxin4 blot. Particulars: reference: wild type Munc18c (WT and R cells), insulin.

For the substance “Munc18c (from UniProt Q60770) Y218/219F, insulin”, the “binding against the reference” value in assay [1] (sites Y218,Y219) and in assay [2] (sites Y218,Y219) was “stronger” each time.

As to “Munc18c (from UniProt Q60770) Y521F, insulin”, the “binding against the reference” value in assay [1] (sites Y521) and in assay [2] (sites Y521) was “stronger” in each case.
